Assay results published in patent US20260250318A1, “COMPOSITIONS AND METHODS FOR CROSSING THE BLOOD BRAIN BARRIER” (VOYAGER THERAPEUTICS, INC., priority 2022, published 2026).

Assays:
[1] = test system: brain, spinal cord, liver and peripheral tissues; test: Individual capsid characterization in mice (qPCR transgene mRNA, viral DNA, IVIS, anti-GFP IHC); details: for DNA (viral genome quantification), Brain, relative to the AAV9 control / mRNA (transgene expression), Brain, relative to the AAV9 control / DNA (viral genome quantification), Liver, relative to the AAV9 control / mRNA (transgene expression), Liver, relative to the AAV9 control: BALB/c mice, tail vein 5e11 VG/dose; for anti-GFP immunohistochemistry staining in brain and spinal cord: compared to AAV9 control
Method: AAV particles were generated with each of these capsid variants encapsulating a luciferase-EGFP transgene driven by a CMV/chicken beta actin promoter in a single stranded viral genome. Each capsid variant and AAV9 control were tested by intravenously administering by tail vein injection, the AAV particle formulation at 5e11 VG/dose (2.5E13 vg/kg) to three female BALB/c mice. The in-life period was 28 days and then various CNS and peripheral tissues were collected for measuring transgene mRNA, transgene protein, and viral DNA (biodistribution).
At 28 days post-injection of the AAV particles encapsulated in the TTM-001 capsid variant (AAV_TTM-001), mice were injected with luciferin and their brains were harvested for IVIS imaging.
The brains isolated from mice injected with the AAV particles encapsulated in the TTM-001 capsid variant (AAV_TTM-001) or the TTM-002 capsid variant (AAV_TTM-002) were assayed by qPCR for the presence of transgene RNA as a measure of transgene expression, and the presence of viral DNA as a measure of viral genome levels. Data were provided as fold over AAV9 (Table 12).
The brain tissues and spinal cords of the mice were also subjected to anti-GFP immunohistochemistry staining to evaluate overall CNS tropism and biodistribution.
Peripheral tissues were also isolated from the mice intravenously injected with the AAV particles encapsulated in the TTM-001 capsid variant or the TTM-002 capsid variant for analysis by qPCR and/or GFP immunohistochemical staining. Transgene mRNA levels and viral genome DNA levels were quantified in the liver by qPCR and the fold over AAV9 was calculated for each capsid variant (Table 12).

[2] = test system: N-linked galactose on HeLa cells; test: Transduction of HeLa cells after neuraminidase treatment (Luc2 activity); assay type: cell-based, human; details: Neuraminidase 1000 mU/mL
ALPL [3] = molecular target: T1, ALPL (Homo sapiens, UniProt P05186); test: SPR (Biacore 8K) binding of peptide ligands to ALPL; details: 50 μM peptides or 250 nM capsids flowed over
T1 sequence (P05186 18-501): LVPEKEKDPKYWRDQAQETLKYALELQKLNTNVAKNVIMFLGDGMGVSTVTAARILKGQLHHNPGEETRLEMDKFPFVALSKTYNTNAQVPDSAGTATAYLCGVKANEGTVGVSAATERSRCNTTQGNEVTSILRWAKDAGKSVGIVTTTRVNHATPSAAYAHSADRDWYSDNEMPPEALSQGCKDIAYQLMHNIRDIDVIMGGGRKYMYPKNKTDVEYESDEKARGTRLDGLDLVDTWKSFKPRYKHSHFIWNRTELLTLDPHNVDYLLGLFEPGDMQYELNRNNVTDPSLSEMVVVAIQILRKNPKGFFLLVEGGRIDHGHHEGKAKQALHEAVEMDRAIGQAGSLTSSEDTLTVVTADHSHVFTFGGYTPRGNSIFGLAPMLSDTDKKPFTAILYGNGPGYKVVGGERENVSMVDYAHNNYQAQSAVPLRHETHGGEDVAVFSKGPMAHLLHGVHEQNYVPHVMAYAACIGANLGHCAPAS
Method: Binding and interaction between the peptides and the ALPL receptor were measured by Surface Plasmon Resonance (SPR) on a Biacore 8K instrument. The biotinylated peptides in Table 37 were captured on the streptavidin biosensor chip and 1000 nM of ALPL and buffer were passed over the peptides to monitor binding. […] His-tagged ALPL was then captured on the chip pre-immobilized with anti-His antibody, and 50 μM of the peptides in Table 37 or 250 nM of the AAV9 control capsid, the TTM-001 capsid variant (SEQ ID NO: 981), or the TTM-002 capsid variant (SEQ ID NO: 982) were flowed over the ALPL to check for binding. […] The longer peptides derived from TTM-002,
were also flowed over the his-tagged ALPL captured on the CM5 sensor chip pre-immobilized with anti-His antibody.
Binding and interaction between the phosho-peptides and the ALPL receptor were also measured by SPR. The biotinylated and phosphorylated peptides in Table 38 were captured on the streptavidin biosensor chip along with their non-phosphorylated counterparts, […] (SEQ ID NO: 4500) and […] (SEQ ID NO: 4503). ALPL and buffer were passed over the peptides to monitor binding. The concentration of ALPL used ranged from 0 to 500 nM (0 nM, 125 nM, 250 nM, and 500 nM).
In a second experiment, his-tagged ALPL was first captured on a CM5 sensor chip pre-immobilized with anti-His antibody. The phosphorylated peptides in Table 38 and their non-phosphorylated counterparts, […] (SEQ ID NO: 4500) and […] (SEQ ID NO: 4503) and buffer were flowed over the ALPL protein to monitor binding.

[4] = test system: N-linked galactose on HeLa cells; test: Transduction of HeLa cells after neuraminidase treatment (Luc2 activity); assay type: cell-based, human
Method: Primary glycan receptors have been identified for various AAV serotypes, including AAV9 which binds N-linked galactose. In order to investigate the ability of TTM-001 and TTM-002 AAV9 variants to retain this natural glycan binding, HeLa cells were treated with increasing concentrations of Neuraminidase ([…]), which cleaves N-sialic acid and exposes N-galactose. The treated cells were then transduced with AAV particles comprising the TTM-001 capsid variant (AAV_TTM-001), the TTM-002 capsid variant (AAV_TTM-002), or an AAV9 control (AAV_AAV9cntl), transduction was measured by quantification of Luc2 activity (RLU), and data was normalized relative to the no neuraminidase control.

ALPL [5] = molecular target: T1, ALPL; assay type: cell-based; parameters: expressed in transfected cells; host or cells: HEK 293T; details: viral genomes, 2 or 3 hours post-incubation, relative to pCMV6
Method: Binding and internalization of AAV capsid variants comprising the TTM-001 capsid variant, the TTM-002 capsid variant, or the AAV9 control capsid was also investigated in cells engineered to express ALPL. HEK 293T cells were transfected via calcium phosphate transfection with a plasmid expressing ALPL, an AAVR positive control, or a pCMV6 negative control. At 24 hours post-transfection, the HEK 293T cells expressing the ALPL receptor were incubated with an AAV particle comprising the TTM-001 capsid variant, the TTM-002 capsid variant, or an AAV9 control capsid protein, expressing a GFP payload. At 2 or 3-hours post-incubation, cells were washed to remove unbound AAV particles and DNA was extracted to quantify viral genomes.

Molecule | DNA (viral genome quantification), Brain, relative to the AAV9 control ([1]; 28 days, qPCR) [fold over AAV9] | mRNA (transgene expression), Brain, relative to the AAV9 control ([1]; 28 days, qPCR) [fold over AAV9] | DNA (viral genome quantification), Liver, relative to the AAV9 control ([1]; 28 days, qPCR, liver) [fold over AAV9] | mRNA (transgene expression), Liver, relative to the AAV9 control ([1]; 28 days, qPCR, liver) [fold over AAV9] | fold change in Luc2 activity (RLU) relative to the no neuraminidase control [2] [fold] | binding to ALPL by SPR, His-tagged ALPL captured on chip (ALPL [3]) | fold change in Luc2 activity (RLU) relative to the no neuraminidase control ([4]; Neuraminidase 5 mU/mL) [fold] | fold change in Luc2 activity (RLU) relative to the no neuraminidase control ([4]; Neuraminidase 50 mU/mL) [fold] | fold change in Luc2 activity (RLU) relative to the no neuraminidase control ([4]; Neuraminidase 500 mU/mL) [fold] | fold increase in binding/internalization in cells expressing ALPL (ALPL [5]) | luciferase signal in brain (IVIS imaging) ([1]; 28 days post-injection, 5e11 VG/dose IV, vs AAV9) | anti-GFP immunohistochemistry staining in brain and spinal cord [1] | transgene mRNA levels in the brain, fold over AAV9 ([1]; qPCR, 28 days, 5e11 VG/dose IV) [fold] | viral genome (DNA) concentrations in the brain, fold over AAV9 ([1]; qPCR, 28 days, 5e11 VG/dose IV) [fold] | viral genome DNA levels in the liver compared to AAV9 ([1]; qPCR, liver) | transgene mRNA levels in the liver compared to AAV9 ([1]; qPCR, liver)
AAV9: wild-type AAV9 control capsid [reference compound] | 1.0 | 1.0 | 1.0 | 1.0 | 10.4 | No detectable binding | 2.7 | 6.2 | 11.1 | unaffected |  |  |  |  |  | 
TTM-001: AAV9 capsid variant comprising SPHSKA (SEQ ID NO: 941) in loop IV (protein) chain 1: MAADGYLPDWLEDNLSEGIREWWALKPGAPQPKANQQHQDNARGLVLPGYKYLGPGNGLDKGEPVNAADAAALEHDKAYDQQLKAGDNPYLKYNHADAEFQERLKEDTSFGGNLGRAVFQAKKRLLEPLGLVEEAAKTAPGKKRPVEQSPQEPDSSAGIGKSGAQPAKKRLNFGQTGDTESVPDPQPIGEPPAAPSGVGSLTMASGGGAPVADNNEGADGVGSSSGNWHCDSQWLGDRVITTSTRTWALPTYNNHLYKQISNSTSGGSSNDNAYFGYSTPWGYFDFNRFHCHFSPRDWQRLINNNWGFRPKRLNFKLFNIQVKEVTDNNGVKTIANNLTSTVQVFTDSDYQLPYVLGSAHEGCLPPFPADVFMIPQYGYLTLNDGSQAVGRSSFYCLEYFPSQMLRTGNNFQFSYEFENVPFHSSYAHSQSLDRLMNPLIDQYLYYLSKTINGSGSPHSKAQNQQTLKFSVAGPSNMAVQGRNYIPGPSYRQQRVSTTVTQNNNSEFAWPGASSWALNGRNSLMNPGPAMASHKEGEDRFFPLSGSLIFGKQGTGRDNVDADKVMITNEEEIKTTNPVATESYGQVATNHQSAQAQAQTGWVQNQGILPGMVWQDRDVYLQGPIWAKIPHTDGNFHPSPLMGGFGMKHPPPQILIKNTPVPADPPTAFNKDKLNSFITQYSTGQVSVEIEWELQKENSKRWNPEIQYTSNYYKSNNVEFAVNTEGVYSEPRPIGTRYLTRNL chain 2: GSGSPHSKAQNQQT | 32.0315 | 30.4503 | 0.4802 | 1.2356 | 9.1 | Binding to ALPL was detected | 5.2 | 6.7 | 8.2 | 3 fold | Robust luciferase signal | significantly stronger staining and payload expression | 30 | 32 | only half as much | 
TTM-002: AAV9 capsid variant comprising HDSPHK (SEQ ID NO: 2) in loop IV (protein) chain 1: MAADGYLPDWLEDNLSEGIREWWALKPGAPQPKANQQHQDNARGLVLPGYKYLGPGNGLDKGEPVNAADAAALEHDKAYDQQLKAGDNPYLKYNHADAEFQERLKEDTSFGGNLGRAVFQAKKRLLEPLGLVEEAAKTAPGKKRPVEQSPQEPDSSAGIGKSGAQPAKKRLNFGQTGDTESVPDPQPIGEPPAAPSGVGSLTMASGGGAPVADNNEGADGVGSSSGNWHCDSQWLGDRVITTSTRTWALPTYNNHLYKQISNSTSGGSSNDNAYFGYSTPWGYFDFNRFHCHFSPRDWQRLINNNWGFRPKRLNFKLFNIQVKEVTDNNGVKTIANNLTSTVQVFTDSDYQLPYVLGSAHEGCLPPFPADVFMIPQYGYLTLNDGSQAVGRSSFYCLEYFPSQMLRTGNNFQFSYEFENVPFHSSYAHSQSLDRLMNPLIDQYLYYLSKTINGHDSPHKSGQNQQTLKFSVAGPSNMAVQGRNYIPGPSYRQQRVSTTVTQNNNSEFAWPGASSWALNGRNSLMNPGPAMASHKEGEDRFFPLSGSLIFGKQGTGRDNVDADKVMITNEEEIKTTNPVATESYGQVATNHQSAQAQAQTGWVQNQGILPGMVWQDRDVYLQGPIWAKIPHTDGNFHPSPLMGGFGMKHPPPQILIKNTPVPADPPTAFNKDKLNSFITQYSTGQVSVEIEWELQKENSKRWNPEIQYTSNYYKSNNVEFAVNTEGVYSEPRPIGTRYLTRNL chain 2: GHDSPHKSGQNQQT | 47.2810 | 66.2161 | 0.0277 | 0.2016 | 13.7 | Binding to ALPL was detected | 9.6 | 12.5 | 13.9 | 6 fold |  | significantly stronger staining and payload expression | 66 |  | greatly reduced | greatly reduced
